Measurements: the supplement of paper PMC9732359
± gives the uncertainty stated by the source.

Assay: protein stability index of a GFP-peptide fusion (yeast GPS) (PSI 1-4); higher = more stable; sorted into four equal gates, so the index is relative within each strain
Method in brief: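 The protein stability index of a peptide was calculated by multiplying its read frequency in each gate by that gate's number and adding the products. The peptides were tiled 17-residue stretches of yeast proteins, fused downstream of GFP on a Cherry-expressing plasmid and carried in yeast as a pooled library. Mid-log cultures in leucine-free medium were sorted into four equal gates by GFP/Cherry ratio, and each gate's plasmids were PCR-amplified and Illumina-sequenced.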

Sequence | protein stability index (doa10∆) | protein stability index (pdr5∆) | protein stability index (san1∆) | protein stability index (ubr1∆)
QESLLSRTFDKYSKLVD [SRP72] | 2.83 ± 0.059 | 2.9 ± 0.068 | 2.99 ± 0.055 | 2.7 ± 0.04
QETQHGNITRGLAVGLA [RPN2] | 3.08 ± 0.074 | 2.55 ± 0.096 | 2.73 ± 0.062 | 2.88 ± 0.04
QFAPAFLNTPNNNINEN [SSN2] | 2.92 ± 0.067 | 2.98 ± 0.063 | 2.66 ± 0.068 | 2.89 ± 0.06
QFASPVRWIETQDVFLK [FAS2] | 2.3 ± 0.026 | 2.06 ± 0.022 | 2.25 ± 0.027 | 2.195 ± 0.018
QFEIPISDDDDSALRYS [POP4] | 2.98 ± 0.071 | 2.75 ± 0.096 | 2.54 ± 0.049 | 3.16 ± 0.038
QFISSRQFEVKQLQLAM [POP1] | 2.24 ± 0.051 | 2.45 ± 0.051 | 2.1 ± 0.067 | 1.74 ± 0.037
QFNAITGLNGSGKSNIL [SMC2] | 3.31 ± 0.17 | 2.99 ± 0.13 | 3.18 ± 0.099 | 3.34 ± 0.067
QFNATINPESREIVMPA [ITC1] | 1.87 ± 0.15 | 1.86 ± 0.17 | 1.7 ± 0.13 | 1.14 ± 0.19
QFPEIAYPGKLICPQYG [CSL4] | 2.01 ± 0.054 | 2.11 ± 0.059 | 1.94 ± 0.1 | 2.17 ± 0.053
QGIFKNSSNYFGELQFA [AAR2] | 2.36 ± 0.14 | 2.6 ± 0.1 | 2.41 ± 0.12 | 2.11 ± 0.12
QGITRNVVNYLSINKNF [RPC17] | 1.31 ± 0.059 | 1.62 ± 0.051 | 1.23 ± 0.093 | 1.52 ± 0.038
QHGFEVQVGPMKVFVTK [RPB7] | 2.26 ± 0.065 | 2.41 ± 0.079 | 2.43 ± 0.089 | 2.52 ± 0.09
QHIYPSSTPGVANYSAM [GAL11] | 2.85 ± 0.11 | 2.7 ± 0.12 | 3.01 ± 0.11 | 2.81 ± 0.14
QHLQQLKMQQQQQQQQQ [GAL11] | 2.21 ± 0.077 | 2.23 ± 0.059 | 2.02 ± 0.12 | 2.09 ± 0.061
QHLRNEHGMNAPSVPEF [SNF2] | 2.86 ± 0.1 | 3.56 ± 0.13 | 2.96 ± 0.08 | 3.09 ± 0.061
QHQSLSRSSSKNVNIED [ESC2] | 2.83 ± 0.18 | 2.69 ± 0.11 | 2.32 ± 0.11 | 3.04 ± 0.084
QIEKKEIKKMIITNINA [YCG1] | 2.64 ± 0.11 | 2.75 ± 0.11 | 2.7 ± 0.13 | 2.47 ± 0.15
QIEKKKICRGRMNTIIT [SIR4] | 3.52 ± 0.17 | 3.43 ± 0.14 | 3.52 ± 0.24 | 2.63 ± 0.27
QIIQRDKINKYSLIRET [SNF5] | 1.39 ± 0.093 | 1.3 ± 0.13 | – | 1.15 ± 0.2
QIISGNRVPDGFQDRSL [RPO31] | 3.17 ± 0.13 | 3.13 ± 0.13 | 3.06 ± 0.08 | 3.38 ± 0.2
QINNVHLIPNEIKGASE [RPN4] | 2.84 ± 0.064 | 2.75 ± 0.059 | 2.42 ± 0.06 | 2.76 ± 0.052
QINPTRETNDDIWRVAG [SNF2] | 2.6 ± 0.064 | 2.26 ± 0.066 | 2.25 ± 0.069 | 2.14 ± 0.052
QKIMILQRTILNRIINH [RGR1] | 1.81 ± 0.068 | 1.83 ± 0.067 | 2 ± 0.076 | 1.7 ± 0.055
QKKVLIDGPKAGVPRQA [RPL14A] | 3.45 ± 0.087 | 3.35 ± 0.084 | 3.05 ± 0.059 | 3.35 ± 0.073
QKRQLHDISKTETSNED [SNU114] | 3.06 ± 0.049 | 2.97 ± 0.045 | 2.98 ± 0.039 | 3.044 ± 0.03
QKSFEQLNSRAVAVVVD [RPN11] | 1.45 ± 0.12 | 1.72 ± 0.09 | 1.51 ± 0.16 | 1.48 ± 0.058
